Experimental data as given in patent publication US20060140946A1.

Biological target: human tumor necrosis factor-alpha (hTNFα) (human) (UniProt P01375)
Assay: cell-based or functional assay

Sequence of human tumor necrosis factor-alpha (hTNFα) (human) (P01375 77-233): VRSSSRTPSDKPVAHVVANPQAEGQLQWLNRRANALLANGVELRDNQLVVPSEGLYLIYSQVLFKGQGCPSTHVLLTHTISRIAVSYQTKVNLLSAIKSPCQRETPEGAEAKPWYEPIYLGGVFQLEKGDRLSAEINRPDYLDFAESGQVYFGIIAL

B1: chimeric mouse/human IgG1 anti-platelet mAb (7E3) (antibody, INN chains, looked up, V domains shown)
VH: EVQLQQSGTVLARPGASVKMSCEASGYTFTNYWMHWVKQRPGQGLEWIGAIYPGNSDTSYIQKFKGKAKLTAVTSTTSVYMELSSLTNEDSAVYYCTLYDGYYVFAYWGQGTLVTVSA
VL: EIVLTQSPVTLSVTPGDSVSLSCRASRDISNNLHWFQQTSHESPRLLIKYASQSMSGIPSRFSGSGSGTDFTLSINSVETEDFGMYFCQQTNSWPYTFGGGTKLEIK
modifications: IgG1
B1 showed an IL-6 secreted by FS-4 fibroblasts; 4 µg/ml antibody, rhTNF 0.3 ng/ml of 1.6 ng/mL, an IL-6 secreted by FS-4 fibroblasts; 4 µg/ml antibody, rhTNF 1.5 ng/ml of 1.96 ng/mL and an IL-6 secreted by FS-4 fibroblasts; 4 µg/ml antibody, rhTNF 7.5 ng/ml of 2.16 ng/mL.
